These results are taken from the RNAGym collection of RNA variant scans (doi:10.1073/pnas.2313332121).

B1: TPR 5TU (parent)
chain: GGAUCUUCUCGAUCUAACAAAAAAGACAAAUCUGCCACAAAGCUUGAGAGCAUCUUCGGAUGCAGAGGCGGCAGCCUUCGGUGGCGCGAUAGCGCCAACGUUCUCAACUAUGACACGCAAAACGCGUGCUCCGUUGAAUGGAGUUUAUCAUG

Variants at the floor of the assay were thinned out.

Variants of B1 are the subject of the series. Description: polymerase ribozyme fitness, log enrichment relative to wild type (log ratio); higher = more active; in vitro selection for triplet polymerase activity. The method, boiled down: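 The heterodimeric triplet polymerase ribozyme's subunits were each mutagenized into PCR-built libraries and transcribed. Every library was selected once, in triplicate, by annealing with a biotinylated primer, the partner subunit and triplets, incubating frozen at −7 °C, gel-excising extended constructs, capturing on streptavidin beads and running RT-PCR. Input and output libraries were Illumina-sequenced, with genotypes kept only at ≥10 input reads and ≥1 read per output. Fitness, from inverse-variance-weighted replicate averages, is the base-2 logarithm of genotype enrichment over wild-type enrichment.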
Consider U4G C87A, for which the “polymerase ribozyme fitness (log ratio)” value was at most -4.2.
In the case of C85U G128A, the “polymerase ribozyme fitness (log ratio)” value is -3.29.
Take A17C G81U C85A C95U C105G A115U: the “polymerase ribozyme fitness (log ratio)” value is -3.03.
Turning to G58U A150C, the “polymerase ribozyme fitness (log ratio)” value was -3.57.
Under C35A G70A A89G G92A stands at most -4.2; under A30G C108U U109A, at most -4.2.
Under A40C C63U U82G G83C C96G A120C A121U U144A stands -0.868; under C72A U77A G88C C93G U111G A137U U139G, at most -4.2; under A49G C87A A89C U90A C129U, at most -4.2.
On to C85A C95G A115G, for which the “polymerase ribozyme fitness (log ratio)” value was -3.81.
Under A39U U101C U144G stands -2.52.
Under U4G U13G A30C U31A G50U C95U C103A C105U stands at most -4.2.
With C10G C18U G59U G86A C103A, the “polymerase ribozyme fitness (log ratio)” value is at most -4.2.
Under C51A A66G G71A G80C G94C A113G stands at most -4.2; under A28U A30C U53G A64U C118U, at most -4.2; under A26U C36U U44A C57A G68C C118A U135G, at most -4.2.
Take A24U C51A U56A G71U G88C U102C: the “polymerase ribozyme fitness (log ratio)” value was at most -4.2.
Under G50U C96A C116G U144G stands -1.25; under U6C A40U U56A G59U C87U A98U C118U, -0.984.
To C14G U33C U56A C85A C99G G117U C123U belongs -3.91; to A64U U148G, at most -4.2; to G84U C99G C103U, at most -4.2.
Under A30U C54U A73G C95A C116U stands -4.03.
Consider U9G C18G A30U C35G C87G A147G, for which the “polymerase ribozyme fitness (log ratio)” value is at most -4.2.
To U56G C93U A110U belongs -3.71; to A28U U61G C87G, -4.14; to U44G U134C, -4.1.
To A40U A52G C132G belongs -3.47.
Under G62C A120G stands -0.94; under U45G C54A U55A C85G G133U, at most -4.2.
With U33G G48C U53A C93U C149U, the “polymerase ribozyme fitness (log ratio)” value is at most -4.2.
Take A21G A37U G59A A60C: the “polymerase ribozyme fitness (log ratio)” value was -3.22.
Under U56A U144A stands -0.302; under A22C U61A G88A A107C A110C C123G G140A, at most -4.2; under C96A C132G, -3.72.
To U15C C35G A39U A73G G83C G100A A107G C125A G141U belongs at most -4.2.
Turning to U78A A91U, the “polymerase ribozyme fitness (log ratio)” value was at most -4.2.
Under A23U A52C U55A G81U G84A C99A U127C U145G stands at most -4.2; under A3U C5G U7C A30C C36U U55A A60G C75U C87G U101A A119C C123G G143U, at most -4.2.
For the variant A49C, the “polymerase ribozyme fitness (log ratio)” value is -4.19.
To A49G A60U belongs -1.62; to A41C C57G, -1.09; to U6A G11A U45A U53G C76U U90G C118U, at most -4.2.
To A17G G50C A137G U144G belongs at most -4.2; to G84A A142G, -1.82.
To G58U G62U C99U C118U U134C belongs at most -4.2; to A52G G58C C79U A98U U101G C108A, at most -4.2; to U56A U130A A147C, -3.18.
Consider A20G G74A C87U U101C A107U, for which the “polymerase ribozyme fitness (log ratio)” value is at most -4.2.
Take A37C A49G C93U: the “polymerase ribozyme fitness (log ratio)” value was -2.86.
To C87U U151G belongs -3.96; to A26U A49G C95U, -3.28; to A22G A40G A41C C57U A107U A120U, at most -4.2.
Under A41U C54G G65C G84U G141A C149A stands at most -4.2; under C36U U145A G152A, -3; under A22U C69G C75U C93U U101C U127A, at most -4.2.
On to A26U C85U A115G, for which the “polymerase ribozyme fitness (log ratio)” value is -3.36.
To C76U G84U belongs -0.883; to G70A G83U C105A A147C U148A, at most -4.2.
To A17U G83A C96U C125U C129U belongs -1.96; to A52G G81A G83A A98U, -1.22.
Under A28G A29U C87G C96A stands at most -4.2; under G34A C85U U101G, -3.5.
A39U C72A G83A A137U: the “polymerase ribozyme fitness (log ratio)” value is at most -4.2.
Turning to U4C C35U A47C U78G G136C, the “polymerase ribozyme fitness (log ratio)” value was at most -4.2.
Consider A52G U101G, for which the “polymerase ribozyme fitness (log ratio)” value was -0.16.
To C32G C105U belongs at most -4.2; to U9A A39U G48A G84U C99A G117U, at most -4.2.
To A113G U134A belongs at most -4.2; to G58A C85A, -1.11; to A30U A66G G68A C76U G141U A142U, at most -4.2.
Under A12U G59U C69A C96U stands -2.45.
Take C32A A49U G68U C79G C85U U127G: the “polymerase ribozyme fitness (log ratio)” value was at most -4.2.
To A22C U55G A60G U101A C118G belongs -0.937.
To G48C A49G U55G A66U C85U A97C G126C belongs at most -4.2.
Under A52U U56A A66U C93A C123G G143A U146A stands at most -4.2; under C96U G141C, -0.372.
Turning to A21C C96A G143A U146G, the “polymerase ribozyme fitness (log ratio)” value was -3.61.
On to A29C G74C, for which the “polymerase ribozyme fitness (log ratio)” value is at most -4.2.
For the variant A20U U82G C93U, the “polymerase ribozyme fitness (log ratio)” value is -2.36.
To A28C G83C G128U belongs at most -4.2; to C99G U101A, -1.12.
To U53A C79U A89G U134G belongs at most -4.2; to A28U C35G C54A C79A G80C A89C G94A, at most -4.2; to U55G A60U G83C A137U G141U, at most -4.2.
Take C75G G92U C103G A122C: the “polymerase ribozyme fitness (log ratio)” value was at most -4.2.
As for A3C C36U G83A, the “polymerase ribozyme fitness (log ratio)” value was -3.09.
For the variant G50C C54U G86A C108U, the “polymerase ribozyme fitness (log ratio)” value was at most -4.2.
To G84A A115C belongs -0.594.
U56C U82G: the “polymerase ribozyme fitness (log ratio)” value is -0.541.
Under U4C U31C C76G C116G stands at most -4.2.
As for A3U A30G U104C C105A C114G A115G A122G C129A, the “polymerase ribozyme fitness (log ratio)” value was at most -4.2.
To C63G U90A C99G U148A belongs at most -4.2; to A12G A41G C85G A106G, -1.5; to U15G A37C A47C C95U, -1.64.
Under C14G C96U stands -2.21.
Under C87A C93A C95G A121U U127G G140A stands at most -4.2; under G59U C93A G133A A138U G141A, at most -4.2; under C57U C75U, 0.237.
As for U55G C99A, the “polymerase ribozyme fitness (log ratio)” value was -3.24.
Under G86U C105A stands -2.68.
Under U56A C57U U82A G84A G92U A106C G143C stands at most -4.2; under A22U C54U G81A G83A U90A C95U G141C, at most -4.2.
As for U13G A40U A60C, the “polymerase ribozyme fitness (log ratio)” value is at most -4.2.
To A21G C36U A52U C116U A120U U144C belongs -3.59; to A52C G68A G94C C99U C108G A120C G143C, at most -4.2.
In the case of A12G A23U C35U C76A C93U A97U C116A, the “polymerase ribozyme fitness (log ratio)” value is -3.12.
Under U53A A66C stands -4.19.
To C69A A91C A122U A142C belongs at most -4.2; to C85G G92C A106C A120U A121G U134A, at most -4.2.
Consider A16G A17G A19C G50A, for which the “polymerase ribozyme fitness (log ratio)” value worked out at 0.928.
Consider C10U U53C U55A G86A G88C, for which the “polymerase ribozyme fitness (log ratio)” value was at most -4.2.
Under C76A U82G C96U stands -0.697.
Under U56A C87A C105G G128C stands at most -4.2; under A3U A47C C105U A120C G124A, -1.78.
To U7C C27A C69G G86A G100C belongs at most -4.2; to A20U U53A A120G, -2.23.
In the case of A16G U31A A39U C132U G136A, the “polymerase ribozyme fitness (log ratio)” value was -3.4.
To A17C C32G C54A C76G G80A C93A C96A U111A belongs at most -4.2; to A47C C57A G84C G86U U146C C149U, at most -4.2; to A52U C87U C103U, -2.81.
Under A19C U44A stands -3.87; under U56C C95A U102A, -1.87; under A16C A22U G62A G74A G81C A106G G141C, at most -4.2.
As to C8A G25U U31A U82C C118G U145C, the “polymerase ribozyme fitness (log ratio)” value is at most -4.2.
To A89C U148C belongs -3.51; to G86U A98U U111G C114U, -3.81; to A20G C96A, -1.84.
To A26C U78C G88A C108G C114G C149G belongs at most -4.2.
To C96U U144G belongs -0.238.
With C85U C96U A98G A150G, the “polymerase ribozyme fitness (log ratio)” value is -2.21.
To A30C G81C A138G U146A C149U belongs at most -4.2; to G48C G94U C103U G140A, at most -4.2.
To A47C C69U G80C belongs at most -4.2; to A98U G141U, 1.39; to C18U A37U U144A, -1.92.
Take A20C U127G G133C U134C A137C A138G G140A: the “polymerase ribozyme fitness (log ratio)” value was at most -4.2.
Under G11A A29U U82G C87A G94C C96U A98G A122C G141A stands at most -4.2; under A16G C43G C57U G84A C85A A91C U127C, at most -4.2.
As to C14A A150G, the “polymerase ribozyme fitness (log ratio)” value is -2.78.
To A37C G84A U101G G126C U135C belongs -3.6; to A60C G88C, at most -4.2.
A24U C27U C51A G92A A113U: the “polymerase ribozyme fitness (log ratio)” value was at most -4.2.
Take A52G G58U C87U: the “polymerase ribozyme fitness (log ratio)” value was -2.
Under U31C C99G C103U stands -0.958; under A41U G83A, -0.754.
Under U13A C85U U135A stands -1.44; under C87U G152C, -3.17.
Under A21U G84C A121U A122C stands -1.35; under A20C G68C G141C, at most -4.2.
Consider A49U A110U G117U, for which the “polymerase ribozyme fitness (log ratio)” value was at most -4.2.
On to C14A G59A G84A A106G C125G U148C C149U, for which the “polymerase ribozyme fitness (log ratio)” value was at most -4.2.
To A97U U139C G140C U145G belongs -3.85; to C57U G94C C116U, 0.445; to A37G C93U G117A G128A, -4.18.
Under U77G A91G G152A stands at most -4.2; under C57U G70A G83C U139G, at most -4.2.
As for G86A A113C, the “polymerase ribozyme fitness (log ratio)” value is -3.53.
U15G A40G C96U A97G G141A: the “polymerase ribozyme fitness (log ratio)” value is -3.18.
Under U56A G70A C85U A97G G133C stands at most -4.2; under A52C G92U C103G A106C, at most -4.2.
With U15C A22C C36A A106G G143A, the “polymerase ribozyme fitness (log ratio)” value is at most -4.2.
As for C32G G59C G71C C85A G88A U151A, the “polymerase ribozyme fitness (log ratio)” value is at most -4.2.
Under A52U G83A C118U A121C stands -2.33.
Under U53A A91G G124A U139G U146A stands -3.5; under U55G G86U, -0.476.
Under A49G U55A A73G stands -3.1.
